Experiment [1] has as its target T1, Tyrosine-protein kinase transmembrane receptor ROR1 (Long Isoform), human, on the cell surface (human, UniProt Q01973 30-937).
T1 construct: Endogenous ROR1 on the human cell lines A549, HT29, H69 and HEK293 and on CLL cells from a patient; also called cell-surface human ROR1; full-length ROR1
The experiment in a line: flow cytometry, legend of FIGS. 5a and 5b (members and cell lines per antibody named in paragraph 474). Here is the method:
(§1) The specificity of antibodies against the ROR1 selected in Example 6 was tested by flow cytometry. To test the ability of the antibodies to bind to the cell surface ROR1 protein, the antibodies were incubated with the ROR1-expressing cells, A549, from human lung adenocarinoma. Cells were washed in FACS buffer (DPBS, 2% FBS), centrifuged and resuspended in 100 μl of the diluted primary ROR1 antibody (also diluted in FACS buffer). The antibody-A549 complex was incubated on ice for 60 min and then washed twice with FACS buffer as described above. The cell-antibody pellet was resuspended in 100 μl of the diluted secondary antibody (also diluted in FACS buffer) and incubated on ice for 60 min on ice. The pellet was washed as before and resuspended in 200 μl FACS buffer. The samples were loaded onto the BD FACScanto II flow sytometer and the data analyzed using the BD FACSdiva software. The binding of ROR1_A3, ROR1_A1, ROR1_A8 and ROR1_A14 to ROR1 expressed on A549, H69 (human small cell lung carcinoma) and HT29 (colon carcinoma) cells were also analysed using flow cytometry.
A general note: A flow cytometer gives signals particle by particle.

Experiment [2] deals with T1, Tyrosine-protein kinase transmembrane …. The experiment in a line: flow cytometry on A549 cells (FIG. 5a). Here is the method: as §1

T1 sequence (Q01973 30-937 limits assumed): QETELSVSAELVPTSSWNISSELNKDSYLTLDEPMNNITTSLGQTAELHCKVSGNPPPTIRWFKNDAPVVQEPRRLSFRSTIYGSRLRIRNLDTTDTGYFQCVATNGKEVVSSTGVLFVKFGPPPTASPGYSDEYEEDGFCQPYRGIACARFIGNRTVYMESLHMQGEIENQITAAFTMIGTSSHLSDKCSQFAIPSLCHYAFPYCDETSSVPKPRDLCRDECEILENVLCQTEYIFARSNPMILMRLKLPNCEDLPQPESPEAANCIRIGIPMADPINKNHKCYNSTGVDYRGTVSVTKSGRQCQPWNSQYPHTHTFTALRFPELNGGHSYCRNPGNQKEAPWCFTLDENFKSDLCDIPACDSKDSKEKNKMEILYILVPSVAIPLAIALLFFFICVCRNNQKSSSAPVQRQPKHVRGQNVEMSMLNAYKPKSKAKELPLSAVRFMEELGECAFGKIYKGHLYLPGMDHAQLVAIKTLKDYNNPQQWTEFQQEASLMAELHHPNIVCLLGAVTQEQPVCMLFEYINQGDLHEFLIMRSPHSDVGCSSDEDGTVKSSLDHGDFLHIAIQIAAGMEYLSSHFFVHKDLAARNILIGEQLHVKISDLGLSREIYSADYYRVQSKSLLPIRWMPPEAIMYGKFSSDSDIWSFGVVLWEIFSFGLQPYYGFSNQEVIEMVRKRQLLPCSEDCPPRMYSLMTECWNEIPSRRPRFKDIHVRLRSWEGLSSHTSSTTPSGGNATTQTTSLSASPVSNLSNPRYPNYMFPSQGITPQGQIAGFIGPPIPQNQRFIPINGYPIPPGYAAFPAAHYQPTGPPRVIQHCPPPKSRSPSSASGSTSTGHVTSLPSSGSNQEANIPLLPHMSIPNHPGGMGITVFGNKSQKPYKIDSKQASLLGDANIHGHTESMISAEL

B1: ROR1_A10 (Fab, V domains shown)
VH: EVQLVETGGGLVKPGGSLKLSCAASGFAFSSYAMSWVRQTPEKRLEWVAAINNRGGGTYYPDTVRGRFTISRDNAKNTLYLQMSSLRSADTALYYCVRHDNLNYDYAMDSWGQGTSVTVSS
VL: NIVMTQSPSSMYASLGERVTITCKASQDIYSYLSWFQQKPGKSPKTLIYRANRLVDGVPSRFSGSGSGQDYSLTISSLDYEDVGIYYCLQYDEFPYTFGSGTKLEIER
notes: The entries are called 'variable region' but as printed hold leader, V domain, constant domain and tag
Regarding B1, the binding result in experiment [1] was “binds”.

B2: ROR1_A14 (Fab, V domains shown)
VH: QVQLKQSGAELVKPGASVKISCKATGYTFSSYWIEWVKERPGHGLEWIGEILPGIGNTNYNEKFKGKATFTADLSSKTAYMQLSSLTSEDSAVYYCASGGYSTVYWYFDVWGAGTTVTVSS
VL: DVVMSQSPSSLAVSTGEKVTLSCKSSQSLLNSRTRKNYLAWYQQKPGQSPKLLIYWTSTRESGVPNRFTGSGSGTDFTLTISSVQAEDLAVYYCKQSYDLPWTFGGGTKLEIKR
notes: as for B1
For the molecule B2, the binding result in experiment [1] is recorded as “binds”.

B3: ROR1_A1 (Fab, V domains shown)
VH: EVKLVESGGGLVRPGGSLKLSCAVSGFTFSSYAMSWVRQTPEKRLEWVAAINFNRGTTYYSDTVKGRFTISRDNAKNTLYLQLSSLRSEDTAFYYCSRHRYSDYDYAMDYWGQGTSVTVSS
VL: DIVMSQSPSSMYASLGERVTITCKASQDINSYLNWFQQKPGKSPKTLIYRANRLVDGVPSRFSGSGSGHDYFLTIRSLEYEDMGIYYCLQYDEFPYTFGGGTKLEIKR
As to B3, the binding result in experiment [1] is “binds”.

B4: ROR1_A3 (Fab, V domains shown)
VH: DVMLVESGGGLVKPGGSLKLSCAASGFTFSSYAMSWVRQTPEKRLEWVAAININRGTTYYSDTVKGRFTISRDNAKNTLYLQLSSLRSEDTALYYCSRHRYSDYDYAMDYWGQGTSVTVSS
VL: DIQLTQSPSSMYASLGERVTIACKASQDINSYLSWFQQKPGKSPKTLIHRANRLVDGVPSRFSGSGSGQDYSLTISSLEYEDIGIYYCLQYDEFPYTFGGGTKLEIKR
notes: as for B1
Turning to B4, the binding result in experiment [2] is recorded as “binds”.

B5: ROR1_A13 (Fab, V domains shown)
VH: EVQLVETGGGLVKPGGSLKLSCAASGFTFSSYAMSWIRQTPEKRLEWVAGINSNRGTTYYPDTVKGRFTISRDNAKNTLYLQMNSLRSEDSALYYCVRHRYIDYDYAMDYWGQGTSVTVSS
VL: NIVMTQSPSSMYASLGERVTIICKSSQDINSYLSWFQQKPGKSPKTLIFRANRLVDGVPSRFSGSGSGQDYSLTISSLEYEDMGIYYCLQYDEFPYTFGGGTKLEVKR
notes: as for B1
With B5, in experiment [1], the binding result is recorded as “binds”.

B6: ROR1_A4 (Fab, V domains shown)
VH: EVKLVESGGGLVKPGGSLKLSCAASGFTFSNYGMSWVRQTPERRLEWVAAMNNNGASTYYPDTVKGRFTISRDNAKNTLYLQMSSLRSEDTALYFCVRHNNYVDYAMDYWGQGTSVTVSS
VL: DILLTQSPSSMYTSLGERVTITCKASQDINSYLSWFQQKPGKSPKTLIYRANKLVDGVPSRFSGSGSGQDYSLTISSLESEDMGIYYCLQYDEFPYTFGGGTKLEIKR
notes: as for B1
In the case of B6, the binding result in experiment [2] is “binds”.

B7: ROR1_A7 (Fab, V domains shown)
VH: EVMLVESGGGLVKPGGSLKISCAASGFSFSSYAMSWVRQTPEKSLEWVAAININRGTPYYPDTVKGRFTISRDNAKNTLYLQMSSLRSEDTALYYCVRHRNSNNDYAMDYWGQGTSVTVSS
VL: DIVMTQSPSSMYTSLGERVTITCKASQDINSYLSWFQQKPGKSPKTLIYRANRLIDGVPSRFSGSGSGQDYSLTISSLEYEDMGIYYCLQYDEFPFTFGSGTKLEIKR
notes: as for B1
For B7, the binding result in experiment [2] is “binds”.

B8: ROR1_A6 (Fab, V domains shown)
VH: EVMLVESGGGLVKPGGSLKLSCAASGFTFSPYAMSWVRQTPEKRLEWVAAINSNRGTTYYPDTVKGRFTISRDNAKNTLYLQMSSLRSEDTAFYYCVRHRYNNYDYAMDYWGQGTSVTVSS
VL: DIVMSQSPSSMYASLGERVTITCKASQDINSYLSWFQQKPGKSPKTLTYRANRLVEGVPSRFSGSGSGQDYSLTISSLEYEDMGIYYCLQYDEFPYTFGGGTKLEIKR
notes: as for B1
Regarding B8, the binding result in experiment [2] was “binds”.

B9: ROR1_A2 (Fab, V domains shown)
VH: EVQLLETGGGLVKPGGSLKLSCAASGFTFSTYAMSWVRQTPEKRLEWVAGINSNRGTTYYPDTVKGRFTISRDNAKNTLSLQMTSLRSEDTALYYCVRHRYTNYDYAMDYWGQGTSVTVSS
VL: DIKMTQSPSSMYASLGERVTITCKASQDINSYLSWFQQKPGKSPKTLIYRANRLVDGVPSRFSGSGSGQDYSLTISSLEYEDMGIYYCLQYDEFPYTFGGGTKLEIKR
notes: as for B1
As for B9, in experiment [2], the binding result is given as “binds”.

B10: ROR1_A9 (Fab, V domains shown)
VH: EVQLVETGGDLVKPGGSLKLSCVASGFTFSSNAMSWVRQTPEKRLEWVAAINSKGGGTYYPDTVRGRFTISRDNAKNTLYLQVTSLRSEDTALYYCVSHGDNKYFYAMDYWGQGTSVTVSS
VL: NIVMTQSPSSMYASLGERVTITCKASQDINSYLSWFQQKPGKSPKTLIYRANRLVDGVPSRFSGSGSGQDYSLTISSLEYEDMGIYYCLQYDEFPYTFGGGTKLEIKR
notes: as for B1
With B10, the binding result in experiment [2] is given as “binds”.

B11: ROR1_A5 (Fab, V domains shown)
VH: EVKLVESGGGLVKPGGSLKLSCAASGFTFSNYDMSWVRQSPEKRLEWVAAINRKGHSTYYPDTVQGRFTISRDNAKNTLYLQMSSLRSEDTALYYCVRLDDNYYFFDYWGQGTTLTVSS
VL: DIKMTQSPSSMYASLGERVTITCKASQDINSYLSWFQQKPGKSPKTLIYRAKRLIDGVPSRFSGSGSGQDYSLTISSLEYEDMGIYYCLQYDEFPYTFGGGTKLEIKR
notes: as for B1
Turning to B11, the binding result in experiment [2] was “binds”.

B12: ROR1_A12 (Fab, V domains shown)
VH: EVQLVESGGGLVKPGGSLKLSCAASGFTFSSYAMSWVRQTPEKRLEWVAAINSNRGTTYYSDTVKGRFTISRDNAKNTLYLQMSSLRSEDTAFYYCTRHRYSDYDYAMDYWGQGTSVTVSS
VL: DIKMTQSPSSMYASLGERVTITCKASQDINSYLSWFQQKPGKSPMTLTHRANRLVDGVPSRFSGSGSGQDYSLTISSLENEDMGIYYCLQYDEFPYTFGGGTKLEIKR
notes: as for B1
In the case of B12, in experiment [1], the binding result is listed as “binds”.

For the origin of these results see patent US20120282177A1 (published 2012).
